Data from patent publication US20210104294A1 (published 2021).
Blank lines part the entries; values can stand above or below the binder they belong to.

How the values were obtained:
Assay in all cases: in vitro peptide-MHC affinity measurement
HLA-B*51:01 = HLA-B*51:01 (human)
HLA-A*01:01 = target: T1, HLA-A*01:01 (human, UniProt P04439-2 25-302)
T1 chain: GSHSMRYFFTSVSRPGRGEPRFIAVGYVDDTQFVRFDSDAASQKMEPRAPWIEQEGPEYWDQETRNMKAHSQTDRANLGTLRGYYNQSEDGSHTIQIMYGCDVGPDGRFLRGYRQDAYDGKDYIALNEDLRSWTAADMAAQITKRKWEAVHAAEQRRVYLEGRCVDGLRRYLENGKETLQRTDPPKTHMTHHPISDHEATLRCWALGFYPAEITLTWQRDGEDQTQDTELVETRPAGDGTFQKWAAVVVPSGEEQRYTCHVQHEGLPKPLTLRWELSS

HLA-A*29:02 = HLA-A*29:02 (human, UniProt P04439 25-308)
HLA-B*54:01 = HLA-B*54:01 (human, UniProt P01889 25-309)

B1: DGLRDLPSI (peptide)
chain: DGLRDLPSI
- IC50 (HLA-B*51:01): 0.0126 µM

B4: DAPLNIRSI (peptide)
chain: DAPLNIRSI
- IC50 (HLA-B*51:01): 0.0065 µM

B7: ALSDLALHF (peptide)
chain: ALSDLALHF
- IC50 (HLA-A*29:02): 0.006 µM

B8: GLDDKLLHY (peptide)
chain: GLDDKLLHY
- IC50 (HLA-A*29:02): 0.0213 µM

B13: DGRLVINRV (peptide)
chain: DGRLVINRV
- IC50 (HLA-B*51:01): 0.0135 µM

B16: DAYPQRIKF (peptide)
chain: DAYPQRIKF
- IC50 (HLA-B*51:01): 0.031 µM

B17: GLPDLVAKY (peptide)
chain: GLPDLVAKY
- IC50 (HLA-A*29:02): 0.0297 µM

B18: FVEILIPVA (peptide)
chain: FVEILIPVA
- IC50 (HLA-B*54:01): 0.0122 µM

B19: ATDGKVLLW (peptide)
chain: ATDGKVLLW
- IC50 (HLA-A*01:01): 0.191 µM

B20: FLWPEAFLY (peptide)
chain: FLWPEAFLY
- IC50 (HLA-A*01:01): 0.0013 µM

B21: DTEFPNFKY (peptide)
chain: DTEFPNFKY
- IC50 (HLA-A*01:01): 0.0808 µM

B23: FPKETFEGP (peptide)
chain: FPKETFEGP
- IC50 (HLA-B*54:01): 0.0164 µM

B25: FYPELKLAY (peptide)
chain: FYPELKLAY
- IC50 (HLA-A*29:02): 0.0002 µM

B27: DGLLRVLTV (peptide)
chain: DGLLRVLTV
- IC50 (HLA-B*51:01): 0.0002 µM

B29: DGYVVKETI (peptide)
chain: DGYVVKETI
- IC50 (HLA-B*51:01): 0.0134 µM

Next, values leading:

- IC50 (HLA-A*01:01): 0.0111 µM
B2: YVPEHWEYY (peptide)
chain: YVPEHWEYY

- IC50 (HLA-B*51:01): 0.0848 µM
B3: TPESKIRFV (peptide)
chain: TPESKIRFV

- IC50 (HLA-A*01:01): 0.0789 µM
B5: TTDGYLLRL (peptide)
chain: TTDGYLLRL

- IC50 (HLA-A*29:02): 0.0016 µM
B6: HFLDRHLVF (peptide)
chain: HFLDRHLVF

- IC50 (HLA-B*51:01): 0.038 µM
B9: IIYPTPKVV (peptide)
chain: IIYPTPKVV

- IC50 (HLA-B*51:01): 0.144 µM
B10: VALLVGEKV (peptide)
chain: VALLVGEKV

- IC50 (HLA-A*29:02): 0.0046 µM
B11: LPLDIQIFY (peptide)
chain: LPLDIQIFY

- IC50 (HLA-B*54:01): 0.0166 µM
B12: SAPVNFISA (peptide)
chain: SAPVNFISA

- IC50 (HLA-B*51:01): 0.0563 µM
B14: VPPLVPKVL (peptide)
chain: VPPLVPKVL

- IC50 (HLA-B*54:01): 0.0017 µM
B15: YPVYQPVGP (peptide)
chain: YPVYQPVGP

- IC50 (HLA-A*01:01): 0.0706 µM
B22: KLDLLEQEY (peptide)
chain: KLDLLEQEY

- IC50 (HLA-A*29:02): 0.0026 µM
B24: YLPALKVEY (peptide)
chain: YLPALKVEY

- IC50 (HLA-B*51:01): 1.79 µM
B26: YIIEREPLI (peptide)
chain: YIIEREPLI

- IC50 (HLA-B*54:01): 0.006 µM
B28: YGFVNYVTA (peptide)
chain: YGFVNYVTA
